Among the data in PMC4678419 are Kd values, retold here.

In assay [1] the target is biotin-labeled surface proteins from THP-1 cells. Description: SPR; Biacore 3000; biotin-labeled surface proteins from THP-1 cells (3.2 kRU) or human monocytes (2.3 kRU) captured on a SA chip; 25 nM S100A8, S100A9 or S100A8/S100A9 injected 3 min at 20 uL/min in HBS-P with 1 mM Ca and 20 uM Zn; fit to a 1:1 model.
Assay [2] has as its target biotin-labeled surface proteins from human monocytes. Described as above.

B1: S100A9 (recombinant human S100A9, produced at Active Biotech AB) (natural protein)
chain: MTCKMSQLERNIETIINTFHQYSVKLGHPDTLNQGEFKELVRKDLQNFLKKENKNEKVIEHIMEDLDTNADKQLSFEEFIMLMARLTWASHEKMHEGDEGPGHHHKPGLGEGTP
Regarding B1, the results for the dissociation constant (Kd) in assay [1] and in assay [2] were 3.3 nM and 2.3 nM, respectively.
